Experimental findings from article PMC7375649, “Varicella zoster virus encodes a viral decoy RHIM to inhibit cell death” (PLoS Pathogens, 2020) are described below.

This data set concerns the molecule itself. Put plainly: single molecule fluorescence confocal spectroscopy (two-colour coincidence); proteins alone or one mCherry-tagged and one YPet-tagged protein mixed, diluted out of 8 M urea to 0.35-0.7 uM in 25 mM NaH2PO4, 150 mM NaCl, 0.5 mM DTT, pH 7.4; room temperature; 488 and 561 nm lasers.

B1: YPet-RIPK3_(387-518) (domain or fragment)
chain: TSSDSMAQPPQTPETSTFRNQMPSPTSTGTPSPGPRGNQGAERQGMNWSCRTPEPNPVTGRPLVNIYNCSGVQVGDNNYLTMQQTTALPTWGLAPSGKGRGLQHPPPVGSQEGPKDPEAWSRPQGWYNHSGK
notes: human RIPK3, RHIM-containing region, residues 387-518; source: E. coli BL21(DE3) pLysS, purified from inclusion bodies under denaturing conditions (Ni-NTA)
In the case of B1, the binding result is on record as “binds”.

B2: YPet-ZBP1_(170-355) (domain or fragment)
chain: SGRRAKSASIIYQHNPINMICQNGPNSWISIANSEAIQIGHGNIITRQTVSREDGSAGPRHLPSMAPGDSSTWGTLVDPWGPQDIHMEQSILRRVQLGHSNEMRLHGVPSEGPAHIPPGSPPVSATAAGPEASFEARIPSPGTHPEGEAAQRIHMKSCFLEDATIGNSNKMSISPGVAGPGGVAGS
notes: human ZBP1, RHIM-containing region, residues 170-355; also called YPet-ZBP1 RHIM; source: E. coli BL21(DE3) pLysS, purified from inclusion bodies under denaturing conditions (Ni-NTA)
Consider B2, for which the binding result is given as “binds”.
